B1: Proline-serine-threonine phosphatase-interacting protein 1 (Homo sapiens), O43586 (parent)
chain: MMPQLQFKDAFWCRDFTAHTGYEVLLQRLLDGRKMCKDMEELLRQRAQAEERYGKELVQIARKAGGQTEINSLRASFDSLKQQMENVGSSHIQLALTLREELRSLEEFRERQKEQRKKYEAVMDRVQKSKLSLYKKAMESKKTYEQKCRDADDAEQAFERISANGHQKQVEKSQNKARQCKDSATEAERVYRQSIAQLEKVRAEWEQEHRTTCEAFQLQEFDRLTILRNALWVHSNQLSMQCVKDDELYEEVRLTLEGCSIDADIDSFIQAKSTGTEPPAPVPYQNYYDREVTPLTSSPGIQPSCGMIKRFSGLLHGSPKTTSLAASAASTETLTPTPERNEGVYTAIAVQEIQGNPASPAQEYRALYDYTAQNPDELDLSAGDILEVILEGEDGWWTVERNGQRGFVPGSYLEKL
partner: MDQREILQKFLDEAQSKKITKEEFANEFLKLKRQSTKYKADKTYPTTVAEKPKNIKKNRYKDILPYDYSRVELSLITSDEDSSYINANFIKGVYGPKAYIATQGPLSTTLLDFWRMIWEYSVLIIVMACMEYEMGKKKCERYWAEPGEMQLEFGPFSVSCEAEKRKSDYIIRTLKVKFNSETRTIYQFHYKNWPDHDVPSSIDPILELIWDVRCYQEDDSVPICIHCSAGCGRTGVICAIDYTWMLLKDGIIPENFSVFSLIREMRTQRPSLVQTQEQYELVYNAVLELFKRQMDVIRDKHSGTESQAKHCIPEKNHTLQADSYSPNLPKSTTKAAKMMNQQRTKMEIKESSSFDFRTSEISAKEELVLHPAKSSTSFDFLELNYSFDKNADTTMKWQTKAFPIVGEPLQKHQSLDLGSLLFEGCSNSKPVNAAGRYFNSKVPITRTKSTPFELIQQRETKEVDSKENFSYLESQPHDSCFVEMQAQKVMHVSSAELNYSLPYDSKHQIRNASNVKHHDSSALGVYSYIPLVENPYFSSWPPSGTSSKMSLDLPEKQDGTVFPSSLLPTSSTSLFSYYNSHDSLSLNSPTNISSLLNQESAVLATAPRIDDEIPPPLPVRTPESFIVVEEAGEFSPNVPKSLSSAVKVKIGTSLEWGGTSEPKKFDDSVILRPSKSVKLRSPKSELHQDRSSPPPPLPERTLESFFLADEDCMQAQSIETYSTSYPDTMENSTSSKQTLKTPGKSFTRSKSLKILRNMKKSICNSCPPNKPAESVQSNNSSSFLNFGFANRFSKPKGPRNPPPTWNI

Variants of: B1
Settings: with ptn22_human PTPN22, Q9Y2R2

| Variant | effect of a mutation on the interaction |
| --- | --- |
| E250Q | disrupting interaction |

Variants of: B1
Settings: with ptn22_human PTPN22, Q9Y2R2
Remark: another data set of the same source

| Variant | effect of a mutation on the interaction |
| --- | --- |
| W232A | disrupting interaction |

From IntAct's records for PubMed 25040622
